Here are results for one molecule from patent US20180163176A1 (NANTKWEST, published 2018).

This assay has as its target CD33 (UniProt P20138 18-364, limits assumed). Description: cell-based or functional assay.

Chain of CD33 (P20138 18-364 limits assumed): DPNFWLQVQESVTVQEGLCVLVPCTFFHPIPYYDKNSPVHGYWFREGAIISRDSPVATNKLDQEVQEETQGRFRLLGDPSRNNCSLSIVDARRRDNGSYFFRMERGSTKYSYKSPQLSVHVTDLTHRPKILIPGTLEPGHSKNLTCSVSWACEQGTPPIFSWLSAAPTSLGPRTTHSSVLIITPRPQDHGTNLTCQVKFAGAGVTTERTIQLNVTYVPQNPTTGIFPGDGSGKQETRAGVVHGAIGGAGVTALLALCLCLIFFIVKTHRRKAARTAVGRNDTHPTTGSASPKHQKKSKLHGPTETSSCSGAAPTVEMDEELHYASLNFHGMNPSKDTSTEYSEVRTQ

B1: CD33-CAR (other)
chain: MDWIWRILFLVGAATGAHSAQPADIQMTQSPSSLSASVGDRVTITCRASESVDNYGISFMNWFQQKPGKAPKLLIYAASNQGSGVPSRFSGSGSGTDFTLTISSLQPDDFATYYCQQSKEVPWTFGQGTKVEIKGGGGSGGGGSGGGGSQVQLVQSGAEVKKPGSSVKVSCKASGYTFTDYNMHWVRQAPGQGLEWIGYIYPYNGGTGYNQKFKSKATITADESTNTAYMELSSLRSEDTAVYYCARGRPAMDYWGQGTLVTVSSALSNSIMYFSHFVPVFLPAKPTTTPAPRPPTPAPTIASQPLSLRPEASRPAAGGAVHTRGLDPKLCYLLDGILFIYGVILTALFLRVKFSRSADAPAYQQGQNQLYNELNLGRREEYDVLDKRRGRDPEMGGKPRRKNPQEGLYNELQKDKMAEAYSEIGMKGERRRGKGHDGLYQGLSTATKDTYDALHMQALPPR
Take B1: the “cytotoxicity against aNK resistant cell lines at 24 hours (flow cytometry assay)” value is greater than 80%.
